Results: patent US7416847, “In vitro peptide or protein expression library” (Isogenica Limited)

T1: P2 A protein (replication initiation protein A), His6-tagged (Bacteriophage P2, UniProt Q06419 Q06419:1-761)
T1 sequence: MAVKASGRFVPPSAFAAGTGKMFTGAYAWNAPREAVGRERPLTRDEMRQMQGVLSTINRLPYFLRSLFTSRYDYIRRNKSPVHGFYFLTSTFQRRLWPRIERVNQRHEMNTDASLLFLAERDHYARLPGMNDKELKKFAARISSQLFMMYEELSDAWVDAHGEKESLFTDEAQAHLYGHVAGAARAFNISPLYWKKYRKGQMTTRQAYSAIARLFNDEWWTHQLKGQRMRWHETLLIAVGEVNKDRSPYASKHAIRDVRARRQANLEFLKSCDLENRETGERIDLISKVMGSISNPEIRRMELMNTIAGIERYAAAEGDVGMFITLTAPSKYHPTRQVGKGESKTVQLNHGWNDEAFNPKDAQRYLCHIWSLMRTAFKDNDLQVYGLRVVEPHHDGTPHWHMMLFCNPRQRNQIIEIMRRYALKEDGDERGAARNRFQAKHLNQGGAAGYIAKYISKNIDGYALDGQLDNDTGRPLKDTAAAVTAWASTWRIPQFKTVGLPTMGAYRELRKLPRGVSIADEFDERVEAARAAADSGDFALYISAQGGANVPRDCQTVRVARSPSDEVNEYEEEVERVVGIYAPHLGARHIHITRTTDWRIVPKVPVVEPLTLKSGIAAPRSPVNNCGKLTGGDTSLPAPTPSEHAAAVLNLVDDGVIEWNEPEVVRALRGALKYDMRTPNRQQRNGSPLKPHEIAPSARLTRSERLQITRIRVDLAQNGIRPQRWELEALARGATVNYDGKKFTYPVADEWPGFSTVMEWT

B1: pEN24 plasmid encoding His::A (contains P2 A attachment site) (dsDNA)
DNA 1: AGCGGCATCGCCGCGCCTCGGAGTCCTGTC
DNA 2: GACAGGACTCCGAGGCGCGGCGATGCCGCT
B2: pEE711 plasmid encoding His::A (contains P2 A attachment site) (dsDNA)
DNA 1: B1 DNA 1
DNA 2: B1 DNA 2

How the values were obtained:
[1] = molecular target: T1, P2 A protein (replication initiation …); assay: pulldown; Ni-NTA selection of His::A plasmid over A plasmid pEN21; no enrichment when S30 extract omitted; whole plasmid assayed, listed sequence is only the attachment region; 1 mM imidazole wash; details: tags: N-terminal His6 (expressed from pEE711 or pEN24 in E. coli T7 S30 extract, Promega)
From the text: In the second experiment two new plasmid constructs pEN21 (an A gene construct with an amp resistance gene, see FIG. 1) and pEN24 (a His::A gene construct with a tag of six histidine residues and a kanamycin resistance gene, see FIG. 1) were subjected to the same type of experiment as in experiment 1 above, with the modifications indicated in the materials and methods section below. By employing this differential antibiotic resistance it is possible to score for the individual plasmid types directly as bacterial colonies.
Materials and Methods pEN21 and 24 are derivatives of pET21a and pET24a (Novagen Inc. USA). The pET21a and pET24a vectors differ only by their selectable marker (ampicillin and kanamycin resistance respectively). The pEN21 and pEN24 were constructed by restriction cutting of pEE709 and pEE711 with XbaI and BlpI which cuts out the A gene and flanking regions. pET21a and pET24a were cut with the same restriction enzymes. The A-fragments and new vector fragments were isolated from an agarose gel after electrophoresis by Spin-Bind columns (FMC). […] The plasmids were incubated for 30 minutes in the S30 extracts and the plasmid types were scored by differential antibiotic resistance using ampicillin (pEN21) and kanamycin (pEN24) plates after transformation of E. coli strain BK 2118 by electroporation. […]

[2] = molecular target: T1, P2 A protein (replication initiation …); assay: pulldown; Ni-NTA selection of His::A plasmid over A plasmid pEE709; cis covalent binding; whole plasmid assayed, listed sequence is only the attachment region; 50 mM Na-phosphate pH 8.0, 300 mM NaCl, 20 mM imidazole; details: tags: N-terminal His6 (expressed from pEE711 or pEN24 in E. coli T7 S30 extract, Promega)
Method: One ug of DNA of the pEE709 and the pEE711 plasmids respectively was added to the coupled transcription/translation extract kit (20 ul S30 premix, 5 ul aminoacid mix and 15 ul *E. Coli* T7 S30 extract system for circular DNA, Promega, USA). The transcription/translation was allowed to proceed for 60 minutes at 37° C. The extract mixture was diluted 12-fold in washing buffer (Qiagen; […] Na-phosphate pH 8.0, 300 mM NaCl, 20 mM imidazole, 1 mM PMSF) and subjected to Ni selection by addition to a Ni-NTA spin column (Qiagen, Germany) equilibrated with Buffer 1 (50 mM Na-phosphate pH 8.0, 300 mM NaCl, 20 mM imidazole) under non-denaturing conditions. […] High efficiency competent cells JM109 (Promega, USA) were transformed with a portion of the eluant and scored for ampicillin resistant colonies. […]
To determine the distribution (ratio) of the plasmid types in the eluant, the presence of plasmids was measured by transformation of strain JM 109 (Promega) for amp-resistance. Colonies were picked and analysed for their plasmid type (differentiated by size) after plasmid extraction followed by agarose gel electrophoresis. The ratio of pEE711 (His::A) to pEE709 (A) in the absence of Ni-column selection was also determined.

Row | Binder | binding signal [1] | binding signal [2]
1 | B1 | 6.8 fold enrichment | 
2 | B2 |  | 13.3 fold enrichment
